What was measured:
[1] = target: Complement C5 (Homo sapiens) (UniProt P01031+P01031); assay: filter; details: 2'-F pyrimidines
[2] = target: Complement C1q (Homo sapiens?) (UniProt P02745+P02746+P02747); assay: filter; details: MgPBS 37C
Chain of Complement C1q (Homo sapiens?) (P02745 23-245, chain 1 of 3): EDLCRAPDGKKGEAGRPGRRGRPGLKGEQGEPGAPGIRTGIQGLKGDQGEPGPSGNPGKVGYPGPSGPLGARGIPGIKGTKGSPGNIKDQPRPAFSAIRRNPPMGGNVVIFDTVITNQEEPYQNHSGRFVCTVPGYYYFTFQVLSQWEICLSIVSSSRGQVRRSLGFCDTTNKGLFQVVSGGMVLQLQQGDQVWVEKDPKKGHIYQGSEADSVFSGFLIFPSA
Chain of Complement C1q (Homo sapiens?) (P02746 28-253, chain 2 of 3): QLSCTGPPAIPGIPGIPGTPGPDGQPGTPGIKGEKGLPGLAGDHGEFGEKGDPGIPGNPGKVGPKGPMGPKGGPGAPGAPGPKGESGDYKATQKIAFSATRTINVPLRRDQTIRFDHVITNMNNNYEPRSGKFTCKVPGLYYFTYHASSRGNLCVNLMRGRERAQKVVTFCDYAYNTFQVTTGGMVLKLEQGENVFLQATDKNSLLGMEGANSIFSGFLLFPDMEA
Chain of Complement C1q (Homo sapiens?) (P02747 29-245, chain 3 of 3): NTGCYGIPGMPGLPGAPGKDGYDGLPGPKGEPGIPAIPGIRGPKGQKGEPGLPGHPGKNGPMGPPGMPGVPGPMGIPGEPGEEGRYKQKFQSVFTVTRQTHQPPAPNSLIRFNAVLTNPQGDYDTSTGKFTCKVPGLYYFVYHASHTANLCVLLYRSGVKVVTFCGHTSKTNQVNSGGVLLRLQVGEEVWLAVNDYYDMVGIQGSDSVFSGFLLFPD

GGGAGGACGAUGCGGUGUUCAGCAUUCAGNAUCUUCACGUGUCGUCAGACGACUCGCCCGA [G3]
Kd ([1]; MgPBS 37C): 55 nM

GGGAGGACGAUGCGGNNNNNNNNNNNNNNNNNNNNNNNNNNNNNNNNNNNNNNNNNNNNNNNNNNCAGACGACUCGCCCGA [random 50N7 2'-NH2 RNA pool]
Kd ([2]; 2'-NH2 pyrimidines): 2300 nM

GGGAGGACGAUGCGGNNNNNNNNNNNNNNNNNNNNNNNNNNNNNNCAGACGACUCGCCCGA [random 30N7 2'-F RNA pool]
Kd ([1]; random pool, likely should be larger): > 1 nM | Kd ([2]; 2'-F pyrimidines): 2300 nM
